In one test the target is T1, cynomolgus monkey ENPP3 (cynomolgus monkey, UniProt A0A2K5TKP4 46-874).
T1 construct: also called cyno ENPP3
T1 sequence: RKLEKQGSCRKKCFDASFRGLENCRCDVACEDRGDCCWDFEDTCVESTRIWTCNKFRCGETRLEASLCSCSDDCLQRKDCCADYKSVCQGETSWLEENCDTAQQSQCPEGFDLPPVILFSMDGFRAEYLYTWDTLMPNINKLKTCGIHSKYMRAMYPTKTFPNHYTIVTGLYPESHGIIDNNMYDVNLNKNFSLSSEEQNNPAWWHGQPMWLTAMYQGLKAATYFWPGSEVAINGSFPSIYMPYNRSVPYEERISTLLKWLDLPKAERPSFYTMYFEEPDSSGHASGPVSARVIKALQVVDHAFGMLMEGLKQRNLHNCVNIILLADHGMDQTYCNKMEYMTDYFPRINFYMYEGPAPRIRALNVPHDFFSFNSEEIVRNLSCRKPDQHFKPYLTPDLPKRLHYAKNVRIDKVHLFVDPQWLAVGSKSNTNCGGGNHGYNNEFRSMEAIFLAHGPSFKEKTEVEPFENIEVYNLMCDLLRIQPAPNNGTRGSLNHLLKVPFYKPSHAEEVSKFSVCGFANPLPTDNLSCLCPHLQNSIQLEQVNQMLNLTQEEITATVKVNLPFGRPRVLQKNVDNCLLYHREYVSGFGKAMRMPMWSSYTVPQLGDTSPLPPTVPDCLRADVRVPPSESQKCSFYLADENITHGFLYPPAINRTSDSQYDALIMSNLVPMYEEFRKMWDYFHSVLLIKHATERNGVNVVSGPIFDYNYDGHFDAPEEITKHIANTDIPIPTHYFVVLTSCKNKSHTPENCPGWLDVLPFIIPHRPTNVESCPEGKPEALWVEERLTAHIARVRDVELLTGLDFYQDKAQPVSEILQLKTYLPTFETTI
In words: binding affinity to cyno ENPP3; method not stated; biphasic.

The target in the next test is T2, human ENPP3 (human, UniProt O14638 46-875, limits assumed).
T2 construct: neither the construct nor the method is stated; also called ectonucleotide pyrophosphatase/phosphodiesterase family member 3
T2 sequence (looked up): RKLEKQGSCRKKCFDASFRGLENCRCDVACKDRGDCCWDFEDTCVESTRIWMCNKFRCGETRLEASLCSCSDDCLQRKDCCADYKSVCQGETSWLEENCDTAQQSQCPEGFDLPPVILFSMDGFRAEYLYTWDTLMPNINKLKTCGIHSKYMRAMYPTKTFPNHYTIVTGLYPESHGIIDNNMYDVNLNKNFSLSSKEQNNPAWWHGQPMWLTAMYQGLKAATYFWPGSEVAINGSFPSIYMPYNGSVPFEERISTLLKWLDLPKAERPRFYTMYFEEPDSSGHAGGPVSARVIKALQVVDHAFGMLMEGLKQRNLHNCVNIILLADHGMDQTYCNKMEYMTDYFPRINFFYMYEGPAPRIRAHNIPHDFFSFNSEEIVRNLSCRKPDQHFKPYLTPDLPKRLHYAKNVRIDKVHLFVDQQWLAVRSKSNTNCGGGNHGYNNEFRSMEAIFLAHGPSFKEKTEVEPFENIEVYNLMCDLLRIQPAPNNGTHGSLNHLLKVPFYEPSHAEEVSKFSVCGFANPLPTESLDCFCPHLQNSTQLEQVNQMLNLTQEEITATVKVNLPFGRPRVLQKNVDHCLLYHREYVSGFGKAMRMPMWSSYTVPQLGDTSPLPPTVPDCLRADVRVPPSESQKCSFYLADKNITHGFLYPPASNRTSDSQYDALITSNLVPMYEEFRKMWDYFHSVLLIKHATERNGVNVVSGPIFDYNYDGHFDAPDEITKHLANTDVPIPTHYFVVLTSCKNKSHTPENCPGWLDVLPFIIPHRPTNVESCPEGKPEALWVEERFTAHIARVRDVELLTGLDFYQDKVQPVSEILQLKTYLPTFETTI
Kind of test: binding affinity to human ENPP3; method not stated.

B1: NPP3B60 (antibody, V domains shown)
VH: QVQLVQSGAEVKKPGESLKISCKGSGYGFTNYWIGWVRQMPGKGLEWMGIIYPSDSNTRYSPSFQGQVTISADKSINTAYLQWSSLKASDTAMYYCTRQNYYYYTMDVWGQGTTVTVSS
VL: DIQMTQSPSFLSASVGDRVTITCRASQVIRSYLAWYQQKPGKAPKLLIYGASTLQSGFPSRFSGSGSGTEFTLTISSLQPEDFATYYCQQLNSYPRTFGQGTKVEIK
notes: mAb from Ablexis Kappa mice
What is called Kd is the equilibrium constant for the complex coming apart. B1: the values for the Kd with cynomolgus monkey ENPP3 and in the test with human ENPP3 were approximately 1 nM and 0.448 nM, respectively.

B2: NPP3B107 (antibody, V domains shown)
VH: EVQLVESGGGLVKPGGSLRLSCAASGFIFSDYSMNWVRQAPGKGLEWVSSISSGSSYIYYADSLKGRFTISRDNAKNSLYLQMSSLRAEDTAVYYCVRGLDYFDYWGQGALVTVSS
VL: DIQMTQSPSFLSASVGDRVTITCRASQDISNYLAWYQQKPGRAPKLLIYVASTLQSGVPSRFSGSGSGTEFTLTISSLQPEDFATYYCQQLNSYPRTFGQGTKVEIK
notes: mAb from Ablexis Kappa mice
B2: the Kd is approximately 20 nM with cynomolgus monkey ENPP3 and 0.133 nM in the test with human ENPP3.

B3: NPP3B86 (antibody, V domains shown)
VH: QVQLVQSGAEVKKPGASVKVSCKASGYTVTNYYIFWVRQAPGQGLEWMGWINPNSGGTNYAQKFQGRVTMTRDTSINTAYMKLSRLGSDDTAVYYCARGGYSGYALSSHYGMDVWGQGTMVTVSS
VL: EIVLTQSPGTLSLSPGERATLSCRASQSVSSSYLAWYQQKPGQAPRLLIYDASSRATGIPDRFSGSGSGTDFTLIISRLEPEDFAVYYCQQYDSSPLTFGGGTKVEIK
notes: mAb from Ablexis Kappa mice
Consider B3, for which the Kd was approximately 5 nM in the test with cynomolgus monkey ENPP3 and 0.245 nM with human ENPP3.

B4: NPP3B56 (antibody, V domains shown)
VH: EVQLVESGGGRVKPGGSLRLSCAASGFTFSDYSMNWVRQAPGKGLEWVSSISSISSYVKYADSVKGRFTMSRDNAKNSLFLQMNSLRDEDMAVYYCARGHYFDYWGQGTLVTVSS
VL: EIVMTQSPATLSVSPGERATLSCRASQSVSSNLAWYQQKPGLAPRLLIYGASTRATGIPARFSGSGSGTEFTLTISSLQSEDFAVYYCQQYNNWPRTFGQGTKVEIK
notes: mAb from Ablexis Kappa mice
For B4, the results for the Kd with cynomolgus monkey ENPP3 and in the test with human ENPP3 were approximately 2 nM and 0.215 nM, respectively.

B5: NPP3B100 (antibody, V domains shown)
VH: QVQLQESGPGLVKTSETLSLTCTVSGGSISSHYWSWIRQPPGKGLEWIGNIFYSGSTNYNPSLKSRVTMSVDTSKNHFSLKLISVTTADTAIYYCARHDHVWFDPWGQGTLVTVSS
VL: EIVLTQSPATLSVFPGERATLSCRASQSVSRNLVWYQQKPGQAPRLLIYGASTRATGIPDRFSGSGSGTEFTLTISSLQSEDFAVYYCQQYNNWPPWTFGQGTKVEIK
notes: mAb from Ablexis Kappa mice
In the test with human ENPP3, B5 had a Kd of 0.0977 nM.

B6: NPP3B98 (antibody, V domains shown)
VH: QVQLQESGPGLVKPSETLSLTCTVSGGSISNYYWSWIRQPAGKGLEWIGRIYASGSTNYNPSLKSRVTMSVDTSKNQFSLRLRSVTATDTAVYYCAREGYSSTLYDNAFDFWGQGTMVTVSS
VL: DIQMTQSPSSVSASVGGRVTITCRASQGISTWLAWYQQKPGKAPKLLIYAASSLQSGVPSRFSGSGSGTDFTLTISSLQPEDFATYYCQQANSFPLTFGGGTKVEIK
notes: mAb from Ablexis Kappa mice
Take B6: the Kd with cynomolgus monkey ENPP3 was approximately 1 nM; with human ENPP3 it was 0.129 nM.

B7: NPP3B64 (antibody, V domains shown)
VH: QVQLVQSGAEVKKPGASVKVSCKASGYTFTTYYIHWVRQAPGQGLEWMGIINPSGGSTNYAQKFQGRVTMTRDTSTRIVYMELGSLRSEDTAVYYCARDYYYYYYGMDVWGQGTTVTVSS
VL: DIVMTQSPLSLPVTLGQPASISCRSSQSLVRNGGYTYLNWLQQRPGQPPRLLIYQISNRFSGVPDRFSGSGAGTDFTLTISRVEAEDVGVYYCMQATQFPHTFGQGTKLEIK
notes: mAb from Ablexis Kappa mice
In the case of B7, the equilibrium dissociation constant (Kd) with cynomolgus monkey ENPP3 was approximately 2 nM; with human ENPP3, 0.536 nM.

The values above are taken from US20250163182A1 (Janssen / Centocor, published 2025).
